Measurements reported in publication PMC9228142, “Going Retro, Going Viral: Experiences and Lessons in Drug Discovery from COVID-19”.

Molecular target: nsp12 (RdRp catalytic subunit);nsp7;nsp8 (SARS-CoV-2;SARS-CoV-2;SARS-CoV-2, UniProt P0DTD1;P0DTD1;P0DTD1 4393-5324;3860-3942;3943-4140, ||)
Test: EMSA
Details: protein: recombinant;recombinant;recombinant; tags: untagged (SUMO fusion cleaved, Ni2+-NTA and SEC purified);;; copies: 1;1;2; label: 5'-Cyanine 5.5

B1: GA1 RNA scaffold (structured_RNA)
RNA: AAAAGAAAAGACGCGUAGUUUUCUACGCG
B1: binds.
